For the series, the system named is full-length rat proMMP9(1-708) (SEQ ID NO:11).
Chain of full-length rat proMMP9(1-708) (SEQ ID NO:11) (chain, as listed by the source): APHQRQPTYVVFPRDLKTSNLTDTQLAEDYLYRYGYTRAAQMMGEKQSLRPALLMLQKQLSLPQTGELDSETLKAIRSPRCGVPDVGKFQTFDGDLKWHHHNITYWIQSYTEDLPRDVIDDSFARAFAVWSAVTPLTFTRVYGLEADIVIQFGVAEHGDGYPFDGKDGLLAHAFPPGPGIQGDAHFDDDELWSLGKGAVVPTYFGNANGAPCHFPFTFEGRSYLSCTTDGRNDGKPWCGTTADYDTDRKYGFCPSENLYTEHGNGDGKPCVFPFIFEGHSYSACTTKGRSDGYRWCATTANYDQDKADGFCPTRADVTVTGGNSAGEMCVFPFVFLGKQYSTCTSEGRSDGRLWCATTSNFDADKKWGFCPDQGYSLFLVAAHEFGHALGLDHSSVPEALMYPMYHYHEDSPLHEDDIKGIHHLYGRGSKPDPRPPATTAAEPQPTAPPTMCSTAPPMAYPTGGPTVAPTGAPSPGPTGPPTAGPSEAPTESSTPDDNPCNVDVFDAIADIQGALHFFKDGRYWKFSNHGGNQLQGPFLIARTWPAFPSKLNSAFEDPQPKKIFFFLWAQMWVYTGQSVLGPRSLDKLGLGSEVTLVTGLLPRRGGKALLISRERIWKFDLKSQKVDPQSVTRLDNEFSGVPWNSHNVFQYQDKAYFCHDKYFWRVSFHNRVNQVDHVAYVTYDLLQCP

Chain of human catalytic MMP3, MMP3(100-265) (SEQ ID NO:8) (chain, as listed by the source): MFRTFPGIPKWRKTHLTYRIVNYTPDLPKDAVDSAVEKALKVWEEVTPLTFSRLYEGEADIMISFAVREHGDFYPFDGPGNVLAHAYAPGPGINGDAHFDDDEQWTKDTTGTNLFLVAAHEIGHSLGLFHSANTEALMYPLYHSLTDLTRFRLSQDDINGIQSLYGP

“human catalytic MMP3, MMP3(100-265) (SEQ ID NO:8)”: the “proteolytic conversion of proMMP9 to catalytic MMP9” value is “full-length rat proMMP9(1-708) (SEQ ID NO:11) converted to catalytic rat MMP9 by catalytic MMP3”.

Source of the values: patent US20130040360.
